54 variants from article PMC10244618 can be followed below.

The labels stand for the following.
B1: NF2 (merlin) isoform 7, human, full length (507 aa, lacks exons 2-3 = isoform-1 residues 39-121; exon-16 C-terminus), P35240-4 (parent)
chain: MAGAIASRMSFSSLKRKQPKTFTVRIVTMDAEMEFNCEVKKQILDEKIYCPPEASVLLASYAVQAKYGDYDPSVHKRGFLAQEELLPKRVINLYQMTPEMWEERITAWYAEHRGRARDEAEMEYLKIAQDLEMYGVNYFAIRNKKGTELLLGVDALGLHIYDPENRLTPKISFPWNEIRNISYSDKEFTIKPLDKKIDVFKFNSSKLRVNKLILQLCIGNHDLFMRRRKADSLEVQQMKAQAREEKARKQMERQRLAREKQMREEAERTRDELERRLLQMKEEATMANEALMRSEETADLLAEKAQITEEEAKLLAQKAAEAEQEMQRIKATAIRTEEEKRLMEQKVLEAEVLALKMAEESERRAKEADQLKQDLQEAREAERRAKQKLLEIATKPTYPPMNPIPAPLPPDIPSFNLIGDSLSFDFKDTDMKRLSMEIEKEKVEYMEKSKHLQEQLNELKTEIEALKLKERETALDILHNENSDRGGSSKHNTIKKPQAQGRRPICI

Values joined by “and” are separate entries in the source; they are usually repeats but may differ in a detail not shown here. Identical values can stand only once.

In the assay the parent is B1. The assay can be described thus: reverse yeast two-hybrid deep mutational scan (rY2H-seq): NF2 isoform 7 mutant library as bait mated with wild-type prey strains; selection on medium lacking adenine for non-interacting pairs; NextSeq paired-end sequencing; enrichment vs …. The settings on record: yeast diploids after mating (RBait_S3 x RPrey_S3), 30 °C, selection for reporter genes on NB agar, HIGHER = WEAKER BINDING (the opposite of display enrichments): higher = stronger loss of interaction: reverse Y2H selects yeast in which bait and prey do NOT interact (growth without adenine), so a …, hits-only table, scale: rY2H score, numbering: uniprot, sequence starts at 1.

Where [1] appears, read: with EMILIN1 (elastin microfibril interfacer 1), Q9Y6C2, human ABL2 co-expressed as the kinase-dead K35M mutant ….
The mark [2] stands for this setting: with EMILIN1 (elastin microfibril interfacer 1), Q9Y6C2, human tyrosine kinase ABL2 co-expressed as the active kinase ….
The mark [3] stands for this setting: with NF2 C-terminal domain (wild type; homomeric NF2-NF2 interaction), P35240, human ABL2 co-expressed as the kinase-dead K35M mutant …, partner unresolved.
Where [4] appears, read: with KDM1A (lysine-specific histone demethylase 1A; the table's label AOF2 is a gene synonym of KDM1A), O60341, human ABL2 co-expressed as the kinase-dead K35M mutant ….
The mark [5] stands for this setting: with KDM1A (lysine-specific histone demethylase 1A; the table's label AOF2 is a gene synonym of KDM1A), O60341, human tyrosine kinase ABL2 co-expressed as the active kinase ….
Setting [6] is: with PIK3R3 (phosphatidylinositol 3-kinase regulatory subunit gamma), Q92569, human tyrosine kinase ABL2 co-expressed as the active kinase ….

On to N482K, for which the enrichment under setting [1] stood at 2.14.
Take N180T: under setting [1], the enrichment turned out to be 1.38.
Take L348E: the enrichment was 2.15 under setting [1], 2.19 under setting [2] and 1.71 under setting [3].
As for L348S, the enrichment under setting [1] was determined as 3.01, the enrichment under setting [2] was found to be 3.29 and the enrichment under setting [4] was determined as 4.93.
Regarding T297A, the enrichment by setting is: under setting [1], 2.57; under setting [5], 2.94.
For the variant L417I, the enrichment under setting [2] came to 8.54 and the enrichment under setting [4] was determined as 4.11.
As to L417K, the enrichment came out at 1.65 under setting [1], 2.29 under setting [5] and 1.72 under setting [6].
As for T168L, the enrichment under setting [1] came out at 2.75; the enrichment under setting [2] was 6.59 and 12.1; the enrichment under setting [4] is 7.24.
On to E177L, for which the enrichment reads like this: under setting [1], 4.46; under setting [2], 2.3; under setting [3], 5.54.
Regarding M251A, the enrichment by setting is: under setting [1], 3.87 and 2.36; under setting [2], 6.14; under setting [4], 4.5; under setting [5], 2.61; under setting [6], 4.21.
Turning to A331L, the enrichment under setting [1] was 2.6 and 2.58; the enrichment under setting [2] amounted to 3.27; the enrichment under setting [4] is 4.61 and 1.64; the enrichment under setting [5] is 5.02.
For D374K, the enrichment came to 2.38 under setting [1] and 5.15 under setting [6].
Consider Q345T, for which the enrichment was determined as 23.4 under setting [1], 13.4 under setting [2], 21.7 under setting [4] and 6.27 under setting [5].
Consider R268K, for which the enrichment under setting [1] is 3.47.
Still for that read-out and setting: the value for R268P was 1.95.
R270L: the enrichment by setting is: under setting [1], 1.78; under setting [2], 6.66; under setting [3], 2.39.
For the variant S60L, the enrichment is 2.18 under setting [1] and 2.95 under setting [4].
With D428K, the enrichment was found to be 4.1 under setting [2] and 2.24 under setting [4].
For the variant R383L, the enrichment under setting [1] was 3.93 and 2.71.
Take R383A: the enrichment reads like this: under setting [2], 1.5 and 2.77; under setting [4], 1.83.
For R25L, the enrichment runs as follows: under setting [1], 3.54; under setting [4], 4.09; under setting [5], 7.07.
Take A298K: under setting [1], the enrichment worked out at 1.79.
As for P497L, the enrichment reads like this: under setting [1], 2.21; under setting [2], 2.34; under setting [5], 5.64; under setting [3], 2.98.
Consider P413L, for which the enrichment under setting [1] is 1.88 and the enrichment under setting [2] is 2.88.
On to I463A, for which the enrichment under setting [1] was determined as 5.41.
On to K318T, for which the enrichment reads like this: under setting [1], 1.91; under setting [5], 1.54.
As to I329E, the enrichment under setting [1] is 2.28; the enrichment under setting [2] is 1.79 and 3.15; the enrichment under setting [5] is 3.19 and 2.75; the enrichment under setting [3] worked out at 2.93.
P174T: the enrichment under setting [1] turned out to be 2.95; the enrichment under setting [4] is 1.5 and 1.57 and 1.64; the enrichment under setting [6] was 2.16 and 1.7.
As to E367L, the enrichment under setting [1] turned out to be 6.79 and the enrichment under setting [2] stood at 1.94.
With E367A, the enrichment by setting is: under setting [1], 1.72; under setting [2], 3.25; under setting [5], 4.1 and 4.23; under setting [6], 2.99.
For the variant I412A, the enrichment runs as follows: under setting [1], 2.67; under setting [2], 3.34.
For R471E, in that order: 8.81 and 3.88.
In the case of Q279K, the enrichment was 2.01 under setting [1]; 2.32 and 4.35 under setting [2]; 6.01 under setting [4]; 7.05 under setting [6].
For I507R, the enrichment by setting is: under setting [1], 1.52; under setting [3], 2.16.
For Q317E, in that order: 1.79 and 4.2.
As to Q317R, the enrichment under setting [2] amounted to 1.98.
As to T429L, under setting [1], the enrichment worked out at 1.9.
The same measure, in the same setting: the result for T147E reads 4.29.
As to L158K, the enrichment is 2.72 under setting [1]; 3.39 and 2.28 under setting [2].
As for L158E, the enrichment runs as follows: under setting [1], 4.99; under setting [2], 4.25 and 2.98.
Turning to L151S, the enrichment is, setting by setting: under setting [1], 3.66; under setting [4], 7.87; under setting [5], 6.8; under setting [3], 12.3.
Regarding L151K, the enrichment under setting [1] amounted to 3.05.
Regarding E259V, the enrichment under setting [1] was found to be 2.5; the enrichment under setting [2] is 1.65; the enrichment under setting [4] came out at 2.8; the enrichment under setting [5] is 2.08; the enrichment under setting [3] came to 2.03; the enrichment under setting [6] is 4.06 and 2.02.
Consider E259L, for which the enrichment by setting is: under setting [1], 1.55; under setting [2], 1.72; under setting [4], 3.91 and 3.57.
Turning to D162L, the enrichment reads like this: under setting [1], 3.3; under setting [4], 2.41; under setting [3], 2.21.
L371K: the enrichment under setting [1] is 2.05 and the enrichment under setting [2] stood at 2.49.
For the variant D30A, the enrichment under setting [1] was 6.06.
Still for that read-out and setting: the result for E311A reads 1.44.
As to G78A, the enrichment under setting [1] is 3.44.
With M280E, the enrichment under setting [1] was 2.68.
For the variant Y161L, the enrichment is 3.35 and 1.58 under setting [1]; 2.08 under setting [4]; 2.22 under setting [6].
R341E: the enrichment under setting [1] came to 3.61, the enrichment under setting [3] was determined as 2.88 and the enrichment under setting [6] was found to be 6.39.
Regarding L301K, the enrichment under setting [1] was 4.43.
In the case of L301E, the enrichment reads like this: under setting [1], 7.29; under setting [2], 1.77; under setting [4], 4.8; under setting [3], 3.42.
